# Tests used:
# [1] = biological target: T1, VeA::TAP* (VeA tagged at its C terminus by TAP tag, veA::ctap*) (Aspergillus nidulans, UniProt C8VTV4 1-573); experiment: tandem affinity purification and mass spectrometry, dark
# T1 construct: 85 kDa on the immunoblot; also called tagged VeA; VeA::TAP* tag
# T1 sequence: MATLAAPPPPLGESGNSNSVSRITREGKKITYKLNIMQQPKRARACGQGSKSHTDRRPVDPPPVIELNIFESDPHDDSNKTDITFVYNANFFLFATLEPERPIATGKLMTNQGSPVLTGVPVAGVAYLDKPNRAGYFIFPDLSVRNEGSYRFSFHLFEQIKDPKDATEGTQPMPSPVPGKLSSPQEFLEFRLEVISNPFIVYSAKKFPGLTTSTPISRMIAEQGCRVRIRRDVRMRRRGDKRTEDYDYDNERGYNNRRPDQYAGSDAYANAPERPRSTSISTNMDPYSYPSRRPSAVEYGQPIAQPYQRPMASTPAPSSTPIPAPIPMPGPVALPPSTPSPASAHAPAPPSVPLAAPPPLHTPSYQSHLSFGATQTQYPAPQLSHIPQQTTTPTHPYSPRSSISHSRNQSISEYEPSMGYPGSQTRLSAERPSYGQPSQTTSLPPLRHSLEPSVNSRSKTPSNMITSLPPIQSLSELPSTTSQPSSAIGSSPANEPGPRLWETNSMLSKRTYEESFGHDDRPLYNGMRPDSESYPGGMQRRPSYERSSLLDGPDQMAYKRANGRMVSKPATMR
# N-EYFP::VeA = biological target: T2, N-EYFP::VeA (Aspergillus nidulans, UniProt C8VTV4 1-573); experiment: bimolecular fluorescence complementation in living A. nidulans cells
# T2 construct: BiFC construct expressed in A. nidulans (pME3188, pME3189); also called enhanced yellow fluorescent protein fused to the N terminus of veA; not shown: N-terminal part of EYFP (n-eyfp)
# T2 sequence: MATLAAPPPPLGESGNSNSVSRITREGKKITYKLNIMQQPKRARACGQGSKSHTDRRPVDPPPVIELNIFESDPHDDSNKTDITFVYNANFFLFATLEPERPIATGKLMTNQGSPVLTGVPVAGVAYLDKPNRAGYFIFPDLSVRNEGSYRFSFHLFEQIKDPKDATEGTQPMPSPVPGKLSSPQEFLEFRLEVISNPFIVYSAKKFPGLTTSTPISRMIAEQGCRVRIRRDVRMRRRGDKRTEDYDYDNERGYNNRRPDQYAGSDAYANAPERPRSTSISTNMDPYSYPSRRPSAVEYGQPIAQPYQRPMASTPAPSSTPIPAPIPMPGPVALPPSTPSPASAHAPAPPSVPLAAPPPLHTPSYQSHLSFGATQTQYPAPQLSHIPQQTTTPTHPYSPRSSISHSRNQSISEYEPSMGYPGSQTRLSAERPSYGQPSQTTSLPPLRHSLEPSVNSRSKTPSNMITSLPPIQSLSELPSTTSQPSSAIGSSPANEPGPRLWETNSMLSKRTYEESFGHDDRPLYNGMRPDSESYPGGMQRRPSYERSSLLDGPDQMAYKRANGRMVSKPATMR
# [2] = biological target: T1, VeA::TAP* (VeA tagged at its C terminus …); experiment: tandem affinity purification of veA::ctap* and mass spectrometry, dark
# [3] = biological target: T3, VeA yeast two-hybrid fusion (veA ORF in pTLexA or pGAD424) (Aspergillus nidulans, UniProt C8VTV4 1-573); experiment: yeast two-hybrid
# T3 construct: also called pNJ04; pNJ05
# T3 sequence: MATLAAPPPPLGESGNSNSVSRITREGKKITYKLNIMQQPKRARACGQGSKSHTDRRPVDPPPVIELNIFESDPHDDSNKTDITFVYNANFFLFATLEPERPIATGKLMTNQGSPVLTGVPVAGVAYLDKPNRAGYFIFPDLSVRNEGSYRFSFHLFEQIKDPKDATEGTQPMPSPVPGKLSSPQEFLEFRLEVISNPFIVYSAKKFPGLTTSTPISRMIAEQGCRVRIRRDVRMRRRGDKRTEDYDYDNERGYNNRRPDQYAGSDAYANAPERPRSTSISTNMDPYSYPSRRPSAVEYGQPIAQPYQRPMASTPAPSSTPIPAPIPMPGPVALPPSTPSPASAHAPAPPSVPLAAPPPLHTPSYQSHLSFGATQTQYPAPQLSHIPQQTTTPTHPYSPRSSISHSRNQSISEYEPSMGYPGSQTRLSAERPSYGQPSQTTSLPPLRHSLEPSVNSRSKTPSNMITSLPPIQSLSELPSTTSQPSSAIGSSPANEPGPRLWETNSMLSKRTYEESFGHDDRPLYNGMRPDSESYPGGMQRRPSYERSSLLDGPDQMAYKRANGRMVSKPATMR
binder,measurement,setting,value
"regulator of sporogenesis VosA (other, Endogenous untagged protein co-purified from A. nidulans extracts) MSAANYPDPSLPRPSTSDDFELIVRQNPNRARVAGGKEKERKPVDPPPIVQIRVREEGTYLAQHYLQSPYFFMSCSLYDAQEDAPASIPPSTALTGTLVSSLHRLKDVDNTDGGFFVWGDLSIKVEGDFRLKFSLFEMRKTDVVFLKSIVSERFTVSPPKSFPGMAESTFLSRSFADQGVKLRIRKEPRTLIKRTAPRPEEYPQAAIPRSPSDRTAMQIPGSSYPAPPYQPTSRDYSYYAPVKRQRTSVDYGARGMYDADGRMRQMETYPQTATLYGQPGGYPTPMMGYPSGHGGVPDYAMSYGLPPSAQVPQMQDPAAQSRSSQQATMQSLGMVNPPGTPTPDSARAMMQQAYPRPQYSASTAVLPPLQQSRNYPQGTNGATRGYYEQSPQATPILPSQPLGTSEAERYGVPPGHTGYDHTGSANGTPR",binding result,[1],no binding
"C-EYFP::LaeA (other, BiFC construct expressed in A. nidulans (pME3188, strain AGB307); not shown: C-terminal part of EYFP (c-eyfp)) MFEMGPVGTRLPAMTSPAHNHYSYHSPTSSDRGRSRQNSDAMDIQSITEREPATRYAVAGGPAPWNRNGSPSMSPMYSNNSERNQFHEENGRTYHGFRRGMYFLPCDEQEQDRLDIFHKLFTVARVSESLIYAPHPTNGRFLDLGCGTGIWAIEVANKYPDAFVAGVDLAPIQPPNHPKNCEFYAPFDFEAPWAMGEDSWDLIHLQMGCGSVMGWPNLYRRIFAHLRPGAWFEQVEIDFEPRCDDRSLDGTALRHWYDCLKQATAETMRPIAHSSRDTIKDLQDAGFTEIDHQIVGLPLNPWHQDEHERKVARWYNLAVSESIENLSLAPFSRVYRWPLERIQQLAADVKSEAFNKEIHAYNILHIYQARKPLR",binding result,N-EYFP::VeA,binds
"LaeA (other, Endogenous untagged protein co-purified from A. nidulans extracts; also called regulator LaeA) MFEMGPVGTRLPAMTSPAHNHYSYHSPTSSDRGRSRQNSDAMDIQSITEREPATRYAVAGGPAPWNRNGSPSMSPMYSNNSERNQFHEENGRTYHGFRRGMYFLPCDEQEQDRLDIFHKLFTVARVSESLIYAPHPTNGRFLDLGCGTGIWAIEVANKYPDAFVAGVDLAPIQPPNHPKNCEFYAPFDFEAPWAMGEDSWDLIHLQMGCGSVMGWPNLYRRIFAHLRPGAWFEQVEIDFEPRCDDRSLDGTALRHWYDCLKQATAETMRPIAHSSRDTIKDLQDAGFTEIDHQIVGLPLNPWHQDEHERKVARWYNLAVSESIENLSLAPFSRVYRWPLERIQQLAADVKSEAFNKEIHAYNILHIYQARKPLR",binding result,[2],binds
"VelB yeast two-hybrid fusion (velB ORF in pTLexA or pGAD424) (other, also called pNJ20; pNJ23) MYAVEDRAHSGHHPPPLSMDRIPPPSTMYPSSAGPSAMVSPAGQPEPESLSTVHDGRIWSLQVVQQPIRARMCGFGDKDRRPITPPPCIRLIVKDAQTQKEVDINSLDSSFYVVMADLWNADGTHEVNLVKHSATSPSISTAMSSSYPPPPHPTSSDYPASYQTNPYGQPVGQPVGQPVGYAGVGNYYGGSTQLQYQNAYPNPQAQYYQPMYGGMAQPQMPAAQPVTPGPGGMFTRNLIGCLSASAYRLYDTEDKIGVWFVLQDLSVRTEGIFRLKFSFVNVGKSVSDLPQSDIAEVINKGTAPILASTFSEPFQVFSAKKFPGVIESTPLSKVFANQGIKIPIRKDGVKGQGSRGRHSDEDDGLDNEY",binding result,[3],binds
"C-EYFP::VelB (other, BiFC construct expressed in A. nidulans (pME3189, strain AGB388); not shown: C-terminal part of EYFP (c-eyfp)) MYAVEDRAHSGHHPPPLSMDRIPPPSTMYPSSAGPSAMVSPAGQPEPESLSTVHDGRIWSLQVVQQPIRARMCGFGDKDRRPITPPPCIRLIVKDAQTQKEVDINSLDSSFYVVMADLWNADGTHEVNLVKHSATSPSISTAMSSSYPPPPHPTSSDYPASYQTNPYGQPVGQPVGQPVGYAGVGNYYGGSTQLQYQNAYPNPQAQYYQPMYGGMAQPQMPAAQPVTPGPGGMFTRNLIGCLSASAYRLYDTEDKIGVWFVLQDLSVRTEGIFRLKFSFVNVGKSVSDLPQSDIAEVINKGTAPILASTFSEPFQVFSAKKFPGVIESTPLSKVFANQGIKIPIRKDGVKGQGSRGRHSDEDDGLDNEY",binding result,N-EYFP::VeA,binds

# — patent publication US20110076682A1 (WISCONSIN ALUMNI RESEARCH FOUNDATION, published 2011)
